Test results as given in patent publication US20040009530A1 (ZYOMYX, published 2004).

These binders were tested against T1, human chorionic gonadotropin (human, UniProt P01215 25-116; P0DN86 21-165, biotinylated using an NHS-SS-biotin reagent (sites not given)) (assay: affinity ELISA, hCG immobilized, serial dilution of engineered protein).
T1 construct: The target was biotinylated and immobilized on Neutravidin- or Streptavidin-coated strip plates; also called hCG
From the text: A total of 192 plaques were screened from the PEG precipitated and non-PEG precipitated eluted phage of round three (FIG. 9). Screening at the phage and protein level was similar to that for the HP6054 selections. The screen identified three engineered chaperonin proteins that were solubly expressed in E. coli and could bind hCG. Both the PEG-precipitated and non-PEG-precipitated selections gave similar results. In these affinity ELISA assays, the engineered chaperonin was serially diluted and the ELISA signal was plotted as a function of engineered chaperonin concentration to determine EC₅₀s, as above. The following EC₅₀ values for the three engineered library proteins was measured: […]

T1 sequence (P01215 25-116, chain 1 of 2, other chains not shown): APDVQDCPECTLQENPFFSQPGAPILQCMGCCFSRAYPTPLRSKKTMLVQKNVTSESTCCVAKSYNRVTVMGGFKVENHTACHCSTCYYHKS

EC50 | Binder
630 nM | engineered chaperonin protein SP4-5 (designed binder, also called engineered protein clone SP4-5; not shown: FLAG-tag from the expression vector upstream of the insertion site) DDDRIPASGIVIARPGESAFMPDVVKNAKIALIDSALEIKKTEIEAKVQISDPSKIQDFLNQETNTFKQMVEKIKKSGANVVLCNGDQADVAYDYLAKEGIYAVHFVDESDMEKLAKATGAKIVTDLDDLTPSVLGEAETVEERKYTEGVPTYVMGCKGSVSHHHHHHSEQKLISEEDLLRLE
5400 nM | engineered chaperonin protein SP4-1 (designed binder, Protein-level screening was 'similar to that for the HP6054 selections', that is, with a FLAG-tag vector and anti-FLAG-HRP detection; not shown: FLAG-tag from the expression vector upstream of the insertion site) DDDRIPASGIVIDRVGRDSNMPHVVKNAKIALIDSALEIKKTEIEAKVQISDPSKIQDFLNQETNTFKQMVEKIKKSGANVVLCADDYAHVAYDYLAKEGIYAVGYVTESDMEKLAKATGAKIVTDLDDLTPSVLGEAETVEERPWGNNKETYVMGCKGSVSHHHHHHSEQKLISEEDLLRLE
48000 nM | engineered chaperonin protein SP4-2 (designed binder, not shown: FLAG-tag from the expression vector upstream of the insertion site) DDDRIPASGIVIVGHNKVPSMPRVVKNAKIALIDSALEIKKTEIEAKVQISDPSKIQDFLNQETNTFKQMVEKIKKSGANVVLCGYKNLTVAYEYLAKEGIYAVYHVDESDMEKLAKATGAKIVTDLDDLTPSVLGEAETVEERGTANAPATYVMGCKGSVSHHHHHHSEQKLISEEDLLRLE

What follows are binders tested against T1, human chorionic gonadotropin (assay: affinity ELISA, hCG immobilized, serial dilution of engineered rubredoxin).
From the text: The method used to identify engineered rubredoxin proteins that bind to human chorionic gonadotropin (hCG) were the same as the method used to identify chaperonin proteins that bind to hCG described in Section 6.9.6, above. The method identified three engineered rubredoxin proteins that could bind hCG. In the affinity ELISA assays, the engineered rubredoxin was serially diluted and the ELISA signal was plotted as a function of engineered rubredoxin concentration to determine EC₅₀s, as above. The following EC₅₀ values for the three library proteins was measured: […]

EC50 | Binder
35 nM | engineered rubredoxin protein F3 (designed binder, Engineered Pyrococcus furiosus rubredoxin; No tags are stated for the assayed construct) MAKWVCKICGYIYDEDAGFVEYYDDGVISPGTKFEELHTAWTCPICSCTYNPFEKLED
81 nM | engineered rubredoxin protein G3 (designed binder, Engineered Pyrococcus furiosus rubredoxin) MAKWVCKICGYIYDEDAGFVEYYGHPNISPGTKFEELSRYVDGWTCPICSYGMPIFEKLED
4000 nM | engineered rubredoxin protein D7 (designed binder, Engineered Pyrococcus furiosus rubredoxin; No tags are stated for the assayed construct) MAKWVCKICGYIYDEDAGEDPGHRSRYISPGTKFEELTTGWTCPICRCTNSTTSTNCFEKLED
